Test results reported in patent publication US20190024095A1.

Target: CD19 on Raji B cells (UniProt P15391)
Test: cell-based or functional assay

Chain of UniProt P15391 (P15391 20-556 limits assumed): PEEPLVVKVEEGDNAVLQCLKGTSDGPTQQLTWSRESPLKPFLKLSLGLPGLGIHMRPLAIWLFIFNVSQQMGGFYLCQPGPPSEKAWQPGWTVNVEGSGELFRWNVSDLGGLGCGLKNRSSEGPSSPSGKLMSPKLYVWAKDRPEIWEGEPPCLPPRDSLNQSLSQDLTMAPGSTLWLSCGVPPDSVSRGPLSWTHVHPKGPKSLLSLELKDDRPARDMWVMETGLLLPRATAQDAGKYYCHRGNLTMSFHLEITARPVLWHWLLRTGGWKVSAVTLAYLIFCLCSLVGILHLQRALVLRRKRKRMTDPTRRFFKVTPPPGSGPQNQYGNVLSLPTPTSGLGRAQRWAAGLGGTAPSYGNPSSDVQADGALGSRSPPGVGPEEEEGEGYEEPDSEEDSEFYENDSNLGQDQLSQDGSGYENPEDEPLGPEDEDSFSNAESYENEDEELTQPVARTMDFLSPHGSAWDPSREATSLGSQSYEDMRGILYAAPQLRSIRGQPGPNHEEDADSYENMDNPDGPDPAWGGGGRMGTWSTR

change in IL-12 expression (NFAT promoter, 3'-UTR not responsive to CAR stimulation): 50 fold | change in IL-12 expression (NFAT promoter, RDE1 (Gold1)): 168 fold | change in IL-12 expression (minP promoter, RDE1 (Gold1)): 6.3 fold | change in activated cells in the population (CD25, CD69; GFP-RDE1 bicistronic construct): 0.9 to 84.8% | change in activated cells in the population (CD25, CD69; GFP-RDE2.1 bicistronic construct): 3.9 to 12.1% | change in activated cells in the population (CD25, CD69; doubly transduced T-cells): 0.9 to 56.9% | change in activated cells in the population (CD25, CD69; singly transduced, bicistronic construct): 3.6 to 5.8% | increase in bioluminescence (MinP promoter, RDE1): 4.1 fold | increase in bioluminescence (MinP promoter, RDE2): 1.8 fold | increase in bioluminescence (MinP promoter, RDE3): 1.4 fold | increase in bioluminescence (NFAT promoter, RDE1): 8.5 fold | increase in bioluminescence (NFAT promoter, RDE2): 3.1 fold | increase in bioluminescence (NFAT promoter, RDE3): 1.3 fold | increase in fluorescence (GFP-RDE1): 6.5% | increase in fluorescence (GFP-RDE2, doubly transduced T-cells): 19.5 to 42.5%
Substance: anti-CD19 CAR (anti-CD19 CAR cassette as described in WO 2012/079000), expressed on transduced T-cells
